Source: PMC2878131 (Science (New York, N.Y.), 2010)

Molecular target: T1, preMADH α subunit (Paracoccus denitrificans, UniProt P29894 29-417)
T1 sequence (looked up): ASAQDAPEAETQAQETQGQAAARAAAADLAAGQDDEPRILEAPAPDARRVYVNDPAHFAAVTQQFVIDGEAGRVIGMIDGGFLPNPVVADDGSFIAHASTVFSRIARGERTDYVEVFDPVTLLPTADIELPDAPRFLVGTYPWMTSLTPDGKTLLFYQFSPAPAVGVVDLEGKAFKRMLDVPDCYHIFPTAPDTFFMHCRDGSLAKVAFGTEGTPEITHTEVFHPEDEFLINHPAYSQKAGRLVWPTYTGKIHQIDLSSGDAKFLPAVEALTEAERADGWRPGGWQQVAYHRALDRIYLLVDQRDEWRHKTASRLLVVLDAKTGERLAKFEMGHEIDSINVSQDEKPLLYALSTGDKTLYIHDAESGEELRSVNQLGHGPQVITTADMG
Test: crystal structure

B1: preMADH β subunit (natural protein, Paracoccus denitrificans, UniProt P22619 58-188, looked up)
chain: ADAPAGTDPRAKWVPQDNDIQACDYWRHCSIDGNICDCSGGSLTNCPPGTKLATASWVASCYNPTDGQSYLIAYRDCCGYNVSGRCPCLNTEGELPVYRPEFANDIIWCFGAEDDAMTYHCTISPIVGKAS
modifications: βTrp57 monohydroxylated at the C7 carbon of the indole ring; no cross-link between βTrp57 and βTrp108
Question: Does B1 bind?
Answer: binds
